Two substances from patent publication US20240301040A1 can be followed below.

Test [1] concerns the target IL-1 receptor (IL-1R) (rat) (UniProt Q02955). Description: co-immunoprecipitation, adult control rats, hippocampal synaptosomes, mean±SEM.
For test [2] the target is unchanged. Nature of the test: co-immunoprecipitation, adult ENV-expressing rats, hippocampal synaptosomes, mean±SEM.

Sequence of UniProt Q02955 (Q02955 20-576): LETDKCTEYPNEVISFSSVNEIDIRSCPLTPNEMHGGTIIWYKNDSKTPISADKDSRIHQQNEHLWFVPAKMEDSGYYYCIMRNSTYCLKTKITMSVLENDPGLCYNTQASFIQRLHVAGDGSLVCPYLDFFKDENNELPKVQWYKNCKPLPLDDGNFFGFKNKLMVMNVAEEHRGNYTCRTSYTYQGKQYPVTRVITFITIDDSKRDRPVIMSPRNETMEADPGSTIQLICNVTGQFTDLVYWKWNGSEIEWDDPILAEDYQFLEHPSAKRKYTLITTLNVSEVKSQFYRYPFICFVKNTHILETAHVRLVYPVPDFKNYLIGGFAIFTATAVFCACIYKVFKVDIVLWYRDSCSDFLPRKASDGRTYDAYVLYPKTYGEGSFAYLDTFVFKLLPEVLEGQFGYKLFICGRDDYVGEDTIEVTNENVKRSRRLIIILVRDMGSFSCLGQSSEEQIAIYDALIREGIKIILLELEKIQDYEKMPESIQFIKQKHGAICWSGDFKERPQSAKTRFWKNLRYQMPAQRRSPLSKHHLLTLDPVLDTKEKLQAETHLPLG

For the substance “GluN2A-NMDAR (GluN2A-containing NMDA receptor) (from UniProt Q00959 23-1464)”, the values for the co-IP GluN2A/IL-1R (normalised to control animals) in test [1] and in test [2] were 1 and 1.04, respectively.
In the case of “GluN2B-NMDAR (GluN2B-containing NMDA receptor) (from UniProt Q00960 27-1482)”, the co-IP GluN2B/IL-1R (normalised to control animals) was 1 in test [1] and 0.95 in test [2].
